Measured values taken from patent US10098870B2 (JENKEM TECHNOLOGY CO., LTD. (BEIJING), priority 2013, dated 2018).
Several values for one entry are separate records, joined by “and”; a condition that tells them apart may be missing. Identical values can stand only once. Entries after “also recorded” stand apart in the source; their conditions may differ. Like-named read-outs stand apart in the source and are kept apart here.

Assays:
[1] = Body weight, survival and tolerance of mice bearing H460 (Example 8); conditions: mean ± SE
Description: (§1) 5.0×10^6 of H460 tumor cells were suspended in 0.1 ml of PBS, inoculated to each nude mouse at the right shoulder, and there were totally 34 mice inoculated. 8 days later the mean tumor volume was desired to reach about 143 mm^3, the mice with a smaller or larger tumor were removed and the remaining 24 mice were divided into groups randomly according to tumor volume and administrated.

[2] = Body weight, survival and tolerance of mice bearing Hep3B (Example 7); type: in vivo, mouse; conditions: mean ± SE
[3] = tested on: H460 human non-small cell lung cancer cells; conditions: for T/C (%) RTV / T/C (%) TW: vs physiological saline; for RTV / Tumor weight: 29th day, Mean ± SEM; for Tumor volume: mean ± SE
Description: as §1

[4] = Body weight, survival and tolerance of mice bearing Calu-6 (Example 9); conditions: mean ± SE;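 further: nude mice bearing Calu-6 tumours, established by implanting 5.0×10^6 cells at the right shoulder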
Description: 5.0×10^6 of Calu-6 tumor cells were suspended in 0.1 ml of PBS, inoculated to each nude mouse at the right shoulder, and there were totally 34 mice inoculated.

[5] = tested on: human hepatoma cell plc/prf/5; assay: Anti-tumor effect on xenograft tumor model of plc/prf/5 in nude mice (Example 6); conditions: for T/C (%) RTV / T/C (%) TW: vs physiological saline; for RTV / Tumor weight: 38th day, Mean ± SEM; for Tumor volume: mean ± SE
Description: 10 days later the mean tumor volume was desired to reach about 161 mm^3, the mice with a smaller or larger tumor were removed and the remaining 24 mice were divided into groups randomly according to tumor volume and administrated.
Wherein QW×4W represents intravenous injection once a week for 4 weeks, BIW×4W represents intravenous injection once every two weeks for 4 weeks, the same below.

[6] = Body weight, survival and tolerance of mice bearing plc/prf/5 (Example 6); type: in vivo, nude mouse; conditions: mean ± SE
Text: Wherein QW×4W represents intravenous injection once a week for 4 weeks, BIW×4W represents intravenous injection […] for 4 weeks, the same below. (2) Experimental Results

[7] = tested on: human hepatoma cell plc/prf/5; assay: Anti-tumor effect on subcutaneous transplantation tumor model of plc/prf/5 in NOD/SCID mice (Example 5); type: in vivo, NOD/SCID mouse; conditions: for Tumor volume: 10 mg/kg (counted with rapamycin) i.v. Q2W×2W, mean ± SE
Description: The tumor cells were passaged with digestion by trypsin-EDTA twice a week. The cells in the exponential growth phase were collected, counted, and used for inoculation.
1×10^7 of plc/prf/5 tumor cells were suspended in 0.1 ml of mixed solution (PBS:Matrigel=4:1), inoculated to each NOD/SCID mouse at the right shoulder.
Wherein Q2W×2W represents intravenous injection […] for 2 weeks, the same below. (2) Experimental Results

[8] = day 8 after inoculation, 30 mg/kg i.v. BIW×3W
[9] = day 8 after inoculation, 45 mg/kg i.v. QW×3W
[10] = day 12 after inoculation, 30 mg/kg i.v. BIW×3W
[11] = day 12 after inoculation, 45 mg/kg i.v. QW×3W
[12] = day 15 after inoculation, 30 mg/kg i.v. BIW×3W
[13] = day 15 after inoculation, 45 mg/kg i.v. QW×3W
[14] = day 19 after inoculation, 30 mg/kg i.v. BIW×3W
[15] = day 19 after inoculation, 45 mg/kg i.v. QW×3W
[16] = day 22 after inoculation, 30 mg/kg i.v. BIW×3W
[17] = day 22 after inoculation, 45 mg/kg i.v. QW×3W
[18] = day 26 after inoculation, 30 mg/kg i.v. BIW×3W
[19] = day 26 after inoculation, 45 mg/kg i.v. QW×3W
[20] = day 20 after inoculation, 30 mg/kg i.v. BIW×4W
[21] = day 20 after inoculation, 45 mg/kg i.v. QW×4W
[22] = day 27 after inoculation, 30 mg/kg i.v. BIW×4W
[23] = day 27 after inoculation, 45 mg/kg i.v. QW×4W
[24] = day 34 after inoculation, 30 mg/kg i.v. BIW×4W
[25] = day 34 after inoculation, 45 mg/kg i.v. QW×4W
[26] = day 17 after inoculation, 30 mg/kg i.v. BIW×4W
[27] = day 17 after inoculation, 45 mg/kg i.v. QW×4W
[28] = day 24 after inoculation, 30 mg/kg i.v. BIW×4W
[29] = day 24 after inoculation, 45 mg/kg i.v. QW×4W
[30] = day 31 after inoculation, 30 mg/kg i.v. BIW×4W
[31] = day 31 after inoculation, 45 mg/kg i.v. QW×4W
[32] = day 38 after inoculation, 30 mg/kg i.v. BIW×4W
[33] = day 10 after inoculation, 30 mg/kg i.v. BIW×4W
[34] = day 10 after inoculation, 45 mg/kg i.v. QW×4W
[35] = day 13 after inoculation, 30 mg/kg i.v. BIW×4W
[36] = day 13 after inoculation, 45 mg/kg i.v. QW×4W

## monomethoxy polyethylene glycol (20K)-glutamic acid dipeptide-rapamycin conjugate [LPR-2]
[1]; [8]
  Body weight of animal: 20.5 ± 0.5 g
[1]; [9]
  Body weight of animal: 20.2 ± 0.4 g
[1]; [10]
  Body weight of animal: 20.3 ± 0.5 g
[1]; [11]
  Body weight of animal: 19.8 ± 0.3 g
[1]; [12]
  Body weight of animal: 20.7 ± 0.4 g
[1]; [13]
  Body weight of animal: 20.9 ± 0.3 g
[1]; [14]
  Body weight of animal: 21.0 ± 0.5 g
[1]; [15]
  Body weight of animal: 20.7 ± 0.3 g
[1]; [16]
  Body weight of animal: 20.7 ± 0.4 g
[1]; [17]
  Body weight of animal: 20.4 ± 0.3 g
[1]; [18]
  Body weight of animal: 20.9 ± 0.5 g
[1]; [19]
  Body weight of animal: 21.4 ± 0.3 g
[1]; day 29 after inoculation, 30 mg/kg i.v. BIW×3W
  Body weight of animal: 21.1 ± 0.4 g
[1]; day 29 after inoculation, 45 mg/kg i.v. QW×3W
  Body weight of animal: 22.1 ± 0.3 g
[2]; day 16 after inoculation, 30 mg/kg i.v. BIW×4W
  Body weight of animal: 20.2 ± 0.6 g
[2]; day 16 after inoculation, 45 mg/kg i.v. QW×4W
  Body weight of animal: 19.2 ± 0.5 g
[2]; [20]
  Body weight of animal: 19.7 ± 0.4 g
[2]; [21]
  Body weight of animal: 18.6 ± 0.4 g
[2]; day 23 after inoculation, 30 mg/kg i.v. BIW×4W
  Body weight of animal: 20.4 ± 0.5 g
[2]; day 23 after inoculation, 45 mg/kg i.v. QW×4W
  Body weight of animal: 18.6 ± 0.4 g
[2]; [22]
  Body weight of animal: 19.7 ± 0.5 g
[2]; [23]
  Body weight of animal: 17.9 ± 0.4 g
[2]; day 30 after inoculation, 30 mg/kg i.v. BIW×4W
  Body weight of animal: 19.1 ± 0.5 g
[2]; day 30 after inoculation, 45 mg/kg i.v. QW×4W
  Body weight of animal: 18.2 ± 0.4 g
[2]; [24]
  Body weight of animal: 19.1 ± 0.6 g
[2]; [25]
  Body weight of animal: 18.2 ± 0.4 g
[2]; day 37 after inoculation, 30 mg/kg i.v. BIW×4W
  Body weight of animal: 18.6 ± 0.4 g
[2]; day 37 after inoculation, 45 mg/kg i.v. QW×4W
  Body weight of animal: 18.0 ± 0.3 g
[2]; day 41 after inoculation, 30 mg/kg i.v. BIW×4W
  Body weight of animal: 17.9 ± 0.3 g
[2]; day 41 after inoculation, 45 mg/kg i.v. QW×4W
  Body weight of animal: 16.7 ± 0.5 g
[2]; day 44 after inoculation, 30 mg/kg i.v. BIW×4W
  Body weight of animal: 17.3 ± 0.3 g
[2]; day 44 after inoculation, 45 mg/kg i.v. QW×4W
  Body weight of animal: 17.1 ± 0.4 g
[3]; 30 mg/kg i.v. BIW×3W
  TGD (to 1,000 mm^3): >9
  T/C (%) RTV: 22%
  T/C (%) TW: 23%
  RTV: 3.43 ± 0.32
  Tumor weight: 364 ± 54 mg
[3]; 45 mg/kg i.v. QW×3W
  TGD (to 1,000 mm^3): >9
  T/C (%) RTV: 25%
  T/C (%) TW: 25%
  RTV: 3.86 ± 0.42
  Tumor weight: 406 ± 60 mg
[3]; [8]
  Tumor volume: 143 ± 16 mm^3
[3]; [9]
  Tumor volume: 143 ± 18 mm^3
[3]; [10]
  Tumor volume: 213 ± 40 mm^3
[3]; [11]
  Tumor volume: 194 ± 33 mm^3
[3]; [12]
  Tumor volume: 208 ± 44 mm^3
[3]; [13]
  Tumor volume: 260 ± 46 mm^3
[3]; [14]
  Tumor volume: 259 ± 50 mm^3
[3]; [15]
  Tumor volume: 282 ± 46 mm^3
[3]; [16]
  Tumor volume: 343 ± 67 mm^3
[3]; [17]
  Tumor volume: 346 ± 53 mm^3
[3]; [18]
  Tumor volume: 459 ± 70 mm^3
[3]; [19]
  Tumor volume: 468 ± 57 mm^3
[3]; day 29 after inoculation, 30 mg/kg i.v. BIW×3W, 30 mg/kg
  Tumor volume: 505 mm^3 and 505 ± 87 mm^3
[3]; day 29 after inoculation, 45 mg/kg i.v. QW×3W, 45 mg/kg
  Tumor volume: 549 mm^3 and 549 ± 76 mm^3
[4]; day 14 after inoculation, 30 mg/kg i.v. BIW×4W
  Body weight of animal: 20.9 ± 0.4 g
[4]; day 14 after inoculation, 45 mg/kg i.v. QW×4W
  Body weight of animal: 20.6 ± 0.4 g
[4]; [26]
  Body weight of animal: 21.0 ± 0.4 g
[4]; [27]
  Body weight of animal: 20.0 ± 0.4 g
[4]; day 21 after inoculation, 30 mg/kg i.v. BIW×4W
  Body weight of animal: 21.7 ± 0.4 g
[4]; day 21 after inoculation, 45 mg/kg i.v. QW×4W
  Body weight of animal: 19.9 ± 0.6 g
[4]; [28]
  Body weight of animal: 21.6 ± 0.3 g
[4]; [29]
  Body weight of animal: 20.9 ± 0.5 g
[4]; day 28 after inoculation, 30 mg/kg i.v. BIW×4W
  Body weight of animal: 22.4 ± 0.4 g
[4]; day 28 after inoculation, 45 mg/kg i.v. QW×4W
  Body weight of animal: 21.3 ± 0.6 g
[4]; [30]
  Body weight of animal: 21.6 ± 0.4 g
[4]; [31]
  Body weight of animal: 20.7 ± 0.6 g
[4]; day 35 after inoculation, 30 mg/kg i.v. BIW×4W
  Body weight of animal: 22.2 ± 0.4 g
[4]; day 35 after inoculation, 45 mg/kg i.v. QW×4W
  Body weight of animal: 21.8 ± 0.6 g
[4]; [32]
  Body weight of animal: 22.3 ± 0.4 g
[4]; day 42 after inoculation, 30 mg/kg i.v. BIW×4W
  Body weight of animal: 22.4 ± 0.3 g
[4]; day 42 after inoculation, 45 mg/kg i.v. QW×4W
  Body weight of animal: 21.5 ± 0.5 g
[5]; 30 mg/kg i.v. BIW×4W
  TGD (to 1,000 mm^3): >12
  T/C (%) RTV: 29%
  T/C (%) TW: 27%
  RTV: 3.48 ± 0.68
  Tumor weight: 517 ± 67 mg
[5]; 45 mg/kg i.v. QW×4W
  TGD (to 1,000 mm^3): >12
  T/C (%) RTV: 46%
  T/C (%) TW: 45%
  RTV: 5.61 ± 0.67
  Tumor weight: 845 ± 87 mg
[5]; 5-FU 25 mg/kg, LPR-2 30 and 45 mg/kg
  anti-tumor effect (in words): significant anti-tumor effect
[5]; [33]
  Tumor volume: 171 ± 15 mm^3
[5]; [34]
  Tumor volume: 171 ± 19 mm^3
[5]; [35]
  Tumor volume: 176 ± 11 mm^3
[5]; [36]
  Tumor volume: 180 ± 25 mm^3
[5]; [26]
  Tumor volume: 217 ± 25 mm^3
[5]; [27]
  Tumor volume: 234 ± 28 mm^3
[5]; [20]
  Tumor volume: 260 ± 30 mm^3
[5]; [21]
  Tumor volume: 257 ± 24 mm^3
[5]; [28]
  Tumor volume: 303 ± 32 mm^3
[5]; [29]
  Tumor volume: 399 ± 25 mm^3
[5]; [22]
  Tumor volume: 317 ± 42 mm^3
[5]; [23]
  Tumor volume: 496 ± 39 mm^3
[5]; [30]
  Tumor volume: 395 ± 39 mm^3
[5]; [31]
  Tumor volume: 607 ± 60 mm^3
[5]; [24]
  Tumor volume: 437 ± 44 mm^3
[5]; [25]
  Tumor volume: 640 ± 93 mm^3
[5]; day 38 after inoculation, 30 mg/kg i.v. BIW×4W, 30 mg/kg
  Tumor volume: 553 mm^3 and 553 ± 63 mm^3
[6]; [33]
  Body weight of animal: 19.9 ± 0.5 g
[6]; [34]
  Body weight of animal: 19.8 ± 0.5 g
[6]; [35]
  Body weight of animal: 19.6 ± 0.8 g
[6]; [36]
  Body weight of animal: 18.9 ± 0.5 g
[6]; [26]
  Body weight of animal: 20.7 ± 0.7 g
[6]; [27]
  Body weight of animal: 20.2 ± 0.3 g
[6]; [20]
  Body weight of animal: 20.4 ± 0.6 g
[6]; [21]
  Body weight of animal: 19.7 ± 0.3 g
[6]; [28]
  Body weight of animal: 20.6 ± 0.7 g
[6]; [29]
  Body weight of animal: 21.1 ± 0.3 g
[6]; [22]
  Body weight of animal: 20.5 ± 0.6 g
[6]; [23]
  Body weight of animal: 20.7 ± 0.2 g
[6]; [30]
  Body weight of animal: 20.1 ± 0.6 g
[6]; [31]
  Body weight of animal: 21.0 ± 0.2 g
[6]; [24]
  Body weight of animal: 19.5 ± 0.6 g
[6]; [25]
  Body weight of animal: 19.7 ± 0.5 g
[6]; [32]
  Body weight of animal: 19.8 ± 0.7 g
[6]; day 38 after inoculation, 45 mg/kg i.v. QW×4W
  Body weight of animal: 20.7 ± 0.3 g
[7]; 10 mg/kg counted with rapamycin, i.v. Q2W×2W
  anti-tumor effect (in words): stronger antitumor activity than that of polyethylene glycol-rapamycin (LPR-1); also recorded: a certain anti-tumor effect; also recorded: obviously the maximum anti-tumor effect; also recorded: anti-tumor effect significantly higher than that of LPR-1
[7]; 10 mg/kg i.v. Q2W×2W
  Days for delaying tumor growth (to 1000 mm^3): >7 days
[7]; day 24 after inoculation
  Tumor volume: 353 ± 54 mm^3
[7]; day 27 after inoculation
  Tumor volume: 404 ± 89 mm^3
[7]; day 31 after inoculation
  Tumor volume: 391 ± 72 mm^3
[7]; day 34 after inoculation
  Tumor volume: 456 ± 77 mm^3
[7]; day 38 after inoculation
  Tumor volume: 536 ± 77 mm^3
